Fewer inactive variants are shown than the library holds.
Tests used:
[1] = test system: biotinyl-Val-oxazolone; assay: self-aminoacylation, catalytic enhancement (BVO) (fold over background); higher = more active; k-Seq, kA / k0A0; sequences stand for … in GGGAAUGGAUCCACAUCUACGAAUUC…UUCACUGCAGACUUGACGAAGCUG
How it was run: (§1)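 The uncatalyzed rate is the low-activity peak of a bimodal Gaussian fit, and catalytic enhancement is median kA divided by it. The kA values came from pseudo-first-order fits, with 1000 bootstraps, of per-sequence fraction reacted measured by streptavidin capture, triplicate qPCR and Illumina sequencing. Mutagenized RNA pools with a 21-nt variable region (0.43 μM) were reacted with each biotinyl-aminoacyl-oxazolone at 2–1250 μM in 50 μL HEPES/NaCl/KCl/MgCl2/CaCl2 buffer with 5% acetonitrile, pH 6.9–7.0, for 90 minutes at room temperature.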

[2] = test system: biotinyl-Trp-oxazolone; assay: self-aminoacylation, catalytic enhancement (BWO) (fold over background); higher = more active; k-Seq, kA / k0A0; sequences stand for … in GGGAAUGGAUCCACAUCUACGAAUUC…UUCACUGCAGACUUGACGAAGCUG
How it was run: as §1

[3] = test system: biotinyl-Ile-oxazolone; assay: self-aminoacylation, catalytic enhancement (BIO) (fold over background); higher = more active; k-Seq, kA / k0A0; sequences stand for … in GGGAAUGGAUCCACAUCUACGAAUUC…UUCACUGCAGACUUGACGAAGCUG
How it was run: as §1

[4] = test system: biotinyl-Met-oxazolone; assay: self-aminoacylation, catalytic enhancement (BMO) (fold over background); higher = more active; k-Seq, kA / k0A0; sequences stand for … in GGGAAUGGAUCCACAUCUACGAAUUC…UUCACUGCAGACUUGACGAAGCUG
How it was run: as §1

[5] = test system: biotinyl-Phe-oxazolone; assay: self-aminoacylation, catalytic enhancement (BFO) (fold over background); higher = more active; k-Seq, kA / k0A0; sequences stand for … in GGGAAUGGAUCCACAUCUACGAAUUC…UUCACUGCAGACUUGACGAAGCUG
How it was run: as §1

[6] = test system: biotinyl-Leu-oxazolone; assay: self-aminoacylation, catalytic enhancement (BLO) (fold over background); higher = more active; k-Seq, kA / k0A0; sequences stand for … in GGGAAUGGAUCCACAUCUACGAAUUC…UUCACUGCAGACUUGACGAAGCUG
How it was run: as §1

| Sequence | self-aminoacylation [1] | self-aminoacylation [2] | self-aminoacylation [3] | self-aminoacylation [4] | self-aminoacylation [5] | self-aminoacylation [6] |
| --- | --- | --- | --- | --- | --- | --- |
| AAUUUUGCUAAUAGUCGCAAA [Fam3.1 aminoacylation ribozyme variant] | 2.15 | 2.42 | 3 | 3.1 | 2.06 | 2.22 |
| AAUUUUGCUAAUAGUCGCAAU [Fam3.1 aminoacylation ribozyme variant] | 2.13 | 2.09 | 2.95 | 2.88 | 2.09 | 2.91 |
| ACACACUACAAGCAAUCGGUC [Fam1B.1 aminoacylation ribozyme variant] | 1.24 | 1.02 | 1.2 | 0.815 | 1.65 | 0.855 |
| ACACACUUCAAGCAAUCGGUU [Fam1B.1 aminoacylation ribozyme variant] | 2.05 | 4.24 | 2.21 | 2.44 | 4.53 | 2.26 |
| ACACACUUCAAGCACUCGGUC [Fam1B.1 aminoacylation ribozyme variant] | 1.3 | 1.77 | 1.44 | 1.42 | 1.49 | 1.62 |
| ACACACUUCAGGCAAUCGGUC [Fam1B.1 aminoacylation ribozyme variant] | 1.44 | 1.84 | 1.56 | 1.38 | 1.75 | 1.42 |
| ACACACUUCCAGCAAUCGGUC [Fam1B.1 aminoacylation ribozyme variant] | 1.3 | 1.6 | 1.47 | 1.31 | 1.19 | 1.3 |
| ACACAUUUCAAGCAAUCGGUC [Fam1B.1 aminoacylation ribozyme variant] | 1.41 | 1.86 | 1.2 | 1.12 | 2.41 | 1.12 |
| ACACUUCAAACAAUCGGUCUG [Fam1A.1 aminoacylation ribozyme variant] | 1.43 | 33.3 | 1.7 | 1.57 | 75.9 | 2.16 |
| ACGUUUCCUAAUAGUCGCAAG [Fam3.1 aminoacylation ribozyme variant] | 1.21 | 1.3 | 1.61 | 1.33 | 1.35 | 1.08 |
| ACGUUUGCUAAGAGUCGCAAG [Fam3.1 aminoacylation ribozyme variant] | 1.44 | 1.44 | 1.35 | 1.12 | 2.95 | 1.65 |
| ACGUUUGCUAAUAGUCGCAAC [Fam3.1 aminoacylation ribozyme variant] | 1.18 | 0.859 | 1.36 | 0.972 | 1.42 | 1.43 |
| ACGUUUGCUCAUAGUCGCAAG [Fam3.1 aminoacylation ribozyme variant] | 1.91 | 3.57 | 1.89 | 1.88 | 2.58 | 2.49 |
| ACGUUUGCUUAUAGUCGCAAG [Fam3.1 aminoacylation ribozyme variant] | 1.46 | 1.75 | 1.32 | 1.68 | 1.76 | 1.67 |
| ACGUUUGGUAAUAGUCGCAAG [Fam3.1 aminoacylation ribozyme variant] | 1.55 | 2.45 | 1.75 | 1.54 | 2.95 | 2.1 |
| ACGUUUGUUAAUAGUCGCAAG [Fam3.1 aminoacylation ribozyme variant] | 1.69 | 1.71 | 1.85 | 2.07 | 3.28 | 2.19 |
| ACUAACCUAGGUCAUCGGGUG [Fam2.2 aminoacylation ribozyme variant] | 3.36 | 6.91 | 5.7 | 6.8 | 40.7 | 8.64 |
| ACUACCCAGGUCAUCGAGUGA [Fam2.1 aminoacylation ribozyme variant] | 3.89 | 5.32 | 3.72 | 5.02 | 23.2 | 6.28 |
| ACUACCCGGGUCAUCGAGUGA [Fam2.1 aminoacylation ribozyme variant] | 4.17 | 8.27 | 4.64 | 7.84 | 43.7 | 8.28 |
| ACUACCCUGGUCACCGAGUGA [Fam2.1 aminoacylation ribozyme variant] | 4.77 | 9.34 | 4.67 | 9.06 | 46.5 | 11.2 |
| ACUACCCUGGUCAUCCAGUGA [Fam2.1 aminoacylation ribozyme variant] | 3.27 | 5.86 | 3.37 | 5.05 | 21.2 | 5.01 |
| ACUACCCUGGUCAUCGACUGA [Fam2.1 aminoacylation ribozyme variant] | 0.854 | 0.51 | 0.918 | 1.09 | 3.44 | 0.769 |

| Sequence | self-aminoacylation [1] | self-aminoacylation [2] | self-aminoacylation [3] | self-aminoacylation [4] | self-aminoacylation [5] | self-aminoacylation [6] |
| --- | --- | --- | --- | --- | --- | --- |
| ACUACCCUGGUCAUCGAGUUA [Fam2.1 aminoacylation ribozyme variant] | 2.38 | 3.55 | 2.05 | 5.07 | 8.46 | 5.11 |
| ACUACCCUGGUCUUCGAGUGA [Fam2.1 aminoacylation ribozyme variant] | 2.72 | 5.15 | 2.45 | 4.26 | 11.5 | 4.54 |
| ACUAGCCUGGUCAUCGAGUGA [Fam2.1 aminoacylation ribozyme variant] | 3.68 | 5.21 | 3.66 | 4.28 | 30.2 | 4.72 |
| ACUCACAUAGGUCAUCGGGUG [Fam2.2 aminoacylation ribozyme variant] | 6.65 | 10.2 | 6.79 | 9.37 | 69.5 | 10.6 |
| ACUCACCAAGGUCAUCGGGUG [Fam2.2 aminoacylation ribozyme variant] | 4.52 | 6.28 | 4.43 | 5.24 | 46.4 | 7.13 |
| ACUCACCUAGGCCAUCGGGUG [Fam2.2 aminoacylation ribozyme variant] | 6.46 | 5.91 | 4.74 | 4.87 | 34.2 | 5.87 |
| ACUCACCUAGGUCAUGGGGUG [Fam2.2 aminoacylation ribozyme variant] | 4 | 4.43 | 3.61 | 3.95 | 24.8 | 4.65 |
| ACUCACCUCGGUCAUCGGGUG [Fam2.2 aminoacylation ribozyme variant] | 4.77 | 6.06 | 4.08 | 4.36 | 34.4 | 5.87 |
| ACUCACCUGGGUCAUCGGGUG [Fam2.2 aminoacylation ribozyme variant] | 4.66 | 8.05 | 4.86 | 4.83 | 38.9 | 5.61 |
| ACUGCCCUGGUCAUCGAGUGA [Fam2.1 aminoacylation ribozyme variant] | 14.9 | 37.1 | 13.4 | 36 | 269 | 34.1 |
| AGACACUUCAAGCAAUCGGUC [Fam1B.1 aminoacylation ribozyme variant] | 2.64 | 16 | 2.8 | 2.62 | 19 | 3.25 |
| AGACUUCAAACAAUCGGUCUG [Fam1A.1 aminoacylation ribozyme variant] | 1.93 | 48.1 | 2.06 | 2.4 | 125 | 3.5 |
| AGCUUUGCUAAUAGUCGCAAG [Fam3.1 aminoacylation ribozyme variant] | 2.4 | 3.68 | 2.95 | 3.31 | 9.09 | 3.02 |
| AGGCACCUAGGUCAUCGGGUG [Fam2.2 aminoacylation ribozyme variant] | 3.73 | 4.1 | 2.94 | 3.14 | 17 | 3.18 |
| AGGUUAGCUAAUAGUCGCAAG [Fam3.1 aminoacylation ribozyme variant] | 1.77 | 3.06 | 1.97 | 1.46 | 2.66 | 2.16 |
| AGGUUUACUAAUAGUCGCAAG [Fam3.1 aminoacylation ribozyme variant] | 1.47 | 1.81 | 1.58 | 1.84 | 4.12 | 1.49 |
| AGGUUUCCUAAUAGUCGCAAG [Fam3.1 aminoacylation ribozyme variant] | 1.44 | 1.54 | 1.65 | 1.6 | 2.49 | 1.61 |
| AGGUUUGCUAAGAGUCGCAAG [Fam3.1 aminoacylation ribozyme variant] | 1.02 | 1.54 | 1.12 | 1.15 | 3.17 | 1.02 |
| AGGUUUGCUAAUAGUCGCAAA [Fam3.1 aminoacylation ribozyme variant] | 2.2 | 1.92 | 2.52 | 2.11 | 3.21 | 2.42 |
| AGGUUUGCUAAUAGUCGCAAC [Fam3.1 aminoacylation ribozyme variant] | 1.05 | 1.43 | 1.26 | 1.15 | 1.52 | 1.13 |
| AGGUUUGCUACUAGUCGCAAG [Fam3.1 aminoacylation ribozyme variant] | 1.69 | 1.77 | 1.35 | 1.55 | 2.49 | 1.84 |

Reference: the supplement of paper PMC9233669
